The target of this test is T1, endogenous FLT3 on the plasma membranes of THP-1 or NOMO-1 cells (UniProt P36888 27-993, limits assumed).
T1 construct: whole, on cells
T1 sequence (looked up): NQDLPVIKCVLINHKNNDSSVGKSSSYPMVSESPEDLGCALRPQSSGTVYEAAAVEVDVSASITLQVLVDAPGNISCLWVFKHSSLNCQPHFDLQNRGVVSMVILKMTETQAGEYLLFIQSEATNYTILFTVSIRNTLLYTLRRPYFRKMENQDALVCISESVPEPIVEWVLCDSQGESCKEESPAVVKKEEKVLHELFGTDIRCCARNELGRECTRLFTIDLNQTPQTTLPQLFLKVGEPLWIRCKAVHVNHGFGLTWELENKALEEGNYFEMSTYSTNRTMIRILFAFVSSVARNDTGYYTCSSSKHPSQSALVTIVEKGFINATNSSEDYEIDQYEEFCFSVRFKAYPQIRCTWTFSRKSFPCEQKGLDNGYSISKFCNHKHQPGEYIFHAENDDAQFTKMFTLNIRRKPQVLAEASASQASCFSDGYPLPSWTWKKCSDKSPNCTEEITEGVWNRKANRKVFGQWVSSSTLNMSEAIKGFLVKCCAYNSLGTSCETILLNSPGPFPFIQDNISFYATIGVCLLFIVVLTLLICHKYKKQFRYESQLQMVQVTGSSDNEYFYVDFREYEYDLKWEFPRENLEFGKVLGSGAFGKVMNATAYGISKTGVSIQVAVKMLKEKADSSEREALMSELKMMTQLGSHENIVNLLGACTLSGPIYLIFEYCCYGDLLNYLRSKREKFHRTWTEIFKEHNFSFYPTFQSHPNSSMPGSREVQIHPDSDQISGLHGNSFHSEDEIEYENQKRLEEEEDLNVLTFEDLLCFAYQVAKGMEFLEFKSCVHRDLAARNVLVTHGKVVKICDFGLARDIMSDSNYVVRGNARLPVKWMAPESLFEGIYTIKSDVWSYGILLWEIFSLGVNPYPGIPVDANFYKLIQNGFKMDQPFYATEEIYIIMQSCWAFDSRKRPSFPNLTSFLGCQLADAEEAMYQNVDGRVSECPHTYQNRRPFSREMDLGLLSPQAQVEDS
Description: interaction and colocalization in THP-1 or NOMO-1 cells (method not detailed).

B1: SCUBE1 on the cell surface of leukemia cells (THP-1, NOMO-1 and other lines) (other, human, UniProt Q8IWY4 24-988, looked up)
chain: GGSGLPGSVDVDECSEGTDDCHIDAICQNTPKSYKCLCKPGYKGEGKQCEDIDECENDYYNGGCVHECINIPGNYRCTCFDGFMLAHDGHNCLDVDECQDNNGGCQQICVNAMGSYECQCHSGFFLSDNQHTCIHRSNEGMNCMNKDHGCAHICRETPKGGVACDCRPGFDLAQNQKDCTLTCNYGNGGCQHSCEDTDTGPTCGCHQKYALHSDGRTCIETCAVNNGGCDRTCKDTATGVRCSCPVGFTLQPDGKTCKDINECLVNNGGCDHFCRNTVGSFECGCRKGYKLLTDERTCQDIDECSFERTCDHICINSPGSFQCLCHRGYILYGTTHCGDVDECSMSNGSCDQGCVNTKGSYECVCPPGRRLHWNGKDCVETGKCLSRAKTSPRAQLSCSKAGGVESCFLSCPAHTLFVPDSENSYVLSCGVPGPQGKALQKRNGTSSGLGPSCSDAPTTPIKQKARFKIRDAKCHLRPHSQARAKETARQPLLDHCHVTFVTLKCDSSKKRRRGRKSPSKEVSHITAEFEIETKMEEASDTCEADCLRKRAEQSLQAAIKTLRKSIGRQQFYVQVSGTEYEVAQRPAKALEGQGACGAGQVLQDSKCVACGPGTHFGGELGQCVSCMPGTYQDMEGQLSCTPCPSSDGLGLPGARNVSECGGQCSPGFFSADGFKPCQACPVGTYQPEPGRTGCFPCGGGLLTKHEGTTSFQDCEAKVHCSPGHHYNTTTHRCIRCPVGTYQPEFGQNHCITCPGNTSTDFDGSTNVTHCKNQHCGGELGDYTGYIESPNYPGDYPANAECVWHIAPPPKRRILIVVPEIFLPIEDECGDVLVMRKSASPTSITTYETCQTYERPIAFTSRSRKLWIQFKSNEGNSGKGFQVPYVTYDEDYQQLIEDIVRDGRLYASENHQEILKDKKLIKALFDVLAHPQNYFKYTAQESKEMFPRSFIKLLRSKVSRFLRPYK
notes: whole, on cells; Endogenous protein; in western blots it was in cell lysate; also called surface SCUBE1; membrane SCUBE1
In the case of B1, the binding result is “binds”.

The values are drawn from patent US20260007767A1 (ACADEMIA SINICA, published 2026).
